The source of these data is patent publication US20090117593A1, “T. Cruzi-derived neurotrophic agents and methods of use therefor” (Tufts University, priority 2006, published 2009).

Substitutions are numbered along the chain they refer to. “Also recorded” adds a separate entry of the source.

Experiment [1] concerns neuroblastoma N18 cells. In words: Neurite outgrowth assay in N18 cells. It is filed as cell-based. Conditions: soluble or immobilized on plastic (500 μg/ml coating), 17 hours. On the procedure:
96-well microtiter plates were coated overnight at 4° C. with the TS or peptides or fragments thereof, or with control proteins laminin (Ln) or bovine serum albumin (BSA) at 500 μg/ml. After removing the compounds, the plates were further incubated with 1% BSA for 1 hour at room temperature and immediately used as substratum for PC12 or N18 (Prasad, K., Biol. Rev. Camb. Philos. Soc., 66:431-451 (1991)) cells in serum-free RPMI/0.2% BSA. Neurite outgrowth was measured using a phase-contrast microscope 17 hours later.

In experiment [2] the test system is human Schwann cells. The experiment can be described thus: Serum withdrawal-induced apoptosis of Schwann cells (DAPI). It is filed as cell-based. As to conditions: serum-free DMEM, 24-72 hours.
For experiment [3], the system named is Akt kinase. In words: Immunodetection and kinase assay of activated Akt in Schwann cells. Conditions: Western blot P-Akt (Ser473).
Method: Schwann cells, grown in 10% FCS to 70% confluency in 6-well plates, were switched to DMEM containing 0.1% FCS for 48 hours to reduce basal Akt phosphorylation. Then the cells were placed in serum-free DMEM medium for 2 hours and challenged with TS, CD or other test factors for predetermined periods of time. When the PI-3 kinase inhibitor LY294002 (Sigma) was used, the inhibitor was added to the serum-starved cells 30 minutes before challenge with TS or CD. Cell samples were lysed with lysis buffer (20 mM Tris, pH 7.5, 150 mM NaCl, 1 mM EDTA, 1% Triton X-100 (t-Octylphenoxypolyethoxyethanol), 2.5 mM sodium pyrophosphate, 1 mM glycerophosphate, 1 mM Na3VO4, 1 μg/ml leupeptin and 1 mM Phenymethylsulfonyl fluoride (PMSF)). Samples (40 μg) were run on 10% SDS-Page, blotted to nitrocellulose paper and analyzed by Western (immuno) blot with monoclonal antibody specific for P-Ser473 of Akt (New England Biolabs). Reaction was visualized by chemiluminescence using the ECL kit (New England Nuclear).
Enzymatic activity of Akt kinase was assessed using the synthetic substrate GSK-3α-fusion protein (Cell Signaling Technology, Beverly, Mass.), according to the protocol provided by Cell Signaling Technology. In short, lysates of Schwann cells subjected to various treatments were immunoprecipitated with Akt antibody coupled to agarose beads, and the immunoprecipitates incubated with GSK-3α-fusion protein as the substrate for Akt phosphorylation, in the presence of 200 μM ATP. Phosphorylation of GSK-3 fusion protein was detected by Western blot using phospho-GSK-3αβ (Ser21/9)-specific antibody (Cell Signaling Technology). The reaction product was identified by chemiluminescence using the ECL kit (New England Nuclear).
In experiment [4] the test system is IL-6. The experiment can be described thus: IL-6 secretion by PBMC (ELISA). It is filed as cell-based, human. As to conditions: 24 hours. On the procedure: (§1) Primary cultures of human intestinal microvascular endothelial cells (HIMEC) isolated from normal jejunal mucosa/submucosal tissue were prepared as described (Strong et al., Gastroenterology 114:1244-1256 (1998)). The HIMEC were cultured in fibronectin-coated plasticware in MCDB medium (Sigma) supplemented with 20% FBS, 90 μg/ml heparin and 50 μg/ml endothelial cell growth factor (Sigma). T-24 cells (ATCC Accession No. HTB-4) were cultured in M199 medium supplemented with 10% FBS. PBMC were purified by Ficoll-Paque gradient as described (Current Protocols in Immunology, pp 7.1.1-7.1.2). Vero cells (ATCC Accession No. CCL-81) were grown in RPMI medium with 5% Nu serum and infected with the Silvio X-10/4 of T. cruzi as described previously (Chuenkova et al., J. Exp. Med. 181:1693-1703 (1995)).
(§2) Endothelial cells and T-24 cells were plated on 24-well plates at a density of 1×10^3 cells/well, while peripheral blood mononuclear cells (PBMC) were plated in the similar wells at 1×10^6/well. Triplicat cultures of cells were incubated test agents for a predetermined amount of time. […] Cytokines and chemokines released in the culture supernatants were measured by ELISA assay following the instructions of the manufacturer (Endogen). The cytokines tested were IL-1β, IL-4, IL-8, […], IL-12, IFN-γ, TNF-α, and the chemokines RANTES and MCP-1. Negative controls were cells incubated in medium containing polymixin B at 10 μg/ml, and positive controls were cells incubated with bacterial LPS at the low ng/ml range (for PBMC or HIMEC) or in the μg/ml range for carcinoma T-24 cells. In some experiments, IL-1β or TNFα were used as positive control for cytokine release.
TR peptides (Table 2) were synthesized at the Tufts Synthesis Facility (Boston, Mass.). Each peptide was purified by HPLC, and the number of amino acids and molecular weight of each peptide verified by mass spectrometry. Peptides were dissolved in growth medium (10% FCS in RPMI) and added at various concentrations to 1×10^6 PBMC/well in 24-well plates. After 24 hours, IL-6 was assayed by ELISA in the conditioned supernatants.

For experiment [5], the system named is PC12 cells. In kind it is cell-based. Conditions: serum-free RPMI/0.2% BSA, collagen coated dishes, 16-17 hours.
Experiment [6] has as its system IL-6. In words: IL-6 secretion by T-24 carcinoma cells (ELISA). Conditions: 24 hours. It is filed as cell-based, human. On the procedure:
as §1, §2

The test system of experiment [7] is PC12 cells. In words: Protection of PC12 cells from apoptosis induced by trophic factor withdrawal (DAPI, TUNEL). In kind it is cell-based. Conditions: serum-free RPMI-1640/0.2% BSA, 17 hours, DAPI or TUNEL. From the text:
PC12 cells were obtained from ATCC (Manassas, Va. (Accession No. CRL-1721)) and cultured on collagen-coated dishes in RPMI 1640 supplemented with 10% horse serum and 5% fetal bovine serum (Greene, L., and Tishler, A., Proc. Natl. Acad. Sci. USA, 73:2424-2428 (1976)). For differentiation and survival experiments, cells were washed three times in serum-free RPMI/0.2% BSA, plated in the same medium in collagen-coated plastic dishes at 2×10^5/ml, without and with growth factors, TS, recombinant proteins, synthetic peptides, for the time and concentrations indicated in the Figures.
Cell staining with 4,6-diamino-2-phenylindole (DAPI). Cells were fixed with 4% formaldehyde in PBS for 5 minutes, washed with PBS, stained with 10 μg/ml DAPI (Sigma) for 2 minutes, washed with PBS, and visualized under UV light using a fluorescent microscope. About 300-400 cells were examined under the microscope to determine the percentage of apoptotic cells.
Cell DNA nick end labeling (TUNEL) (Gavrieli, Y. et al., J. Cell. Biol., 119:493-501 (1992)) assay was performed using a kit purchased from Boehringer Mannheim as described by the manufacturer.
Protection against apoptosis of PC12 cells in serum-free medium containing a test agent (agent N) (e.g., protection induced by TS, TS fragments, NGF or other growth factors), was calculated by the formula: 100%−[(apoptosis(%) of cells kept in RPMI containing test agent N÷apoptosis (%) of cells kept in RPMI)×100%]. Testing the effect of Wortmannin (Sigma) and LY294002 (Sigma) in inhibiting the neuroprotection of TS was performed following the protocol described by others (Yao, R., and Cooper, G., Science, 267:2003-2006 (1995); D'Mello, et al., J. Neurosci., 17:1548-1560 (1997)). In brief, PC12 cells were switched from growth medium to RPMI without and with TS or various other growth factors. After 24 hours, Wortmannin and LY294002 were added to the cultures. After another 24 hours, cells were examined for apoptosis by the DAPI assay, as above.

A short description of experiment [8]: Trans-sialidase assay. It is filed as biochemical. Here is the method: The trans-sialidase assay was performed as described (Scudder, P. et al., J. Biol. Chem., 268:9886-9891 (1993)) with slight modifications. Various amounts of intact enzyme or enzyme fragments were added to 50 mM PBS, Ph 7.2, containing 15% fetal calf serum and […] of [^14C]N-acetyllactosamine (4×10^5 dpm), 50 μg BSA and 0.02% NaN3 in a volume of 60 μl. After incubation for a predetermined amount of time at room temperature, the reaction mixture was diluted to 1.0 ml with distilled water and applied to a column containing 1.0 ml Q-Sepharose equilibrated with water. Sialylated product was eluted with 1 M NaCl and quantified by scintillation counting.
TS enzymatic activity was measured by the sialylation of the acceptor ^14C-labeled N-acetyllactosamine on anion exchange resins (Scudder, P. et al., J. Biol. Chem. 268:9886-9891 (1993)). Recombinant TSA-1, was expressed on insect sf9 cells and purified from serum-free medium by ion exchange chromatography (monoQ) and preparative SDS-PAGE (Wrightsman, R. A. et al., J. Immunol., 153:3148-3154 (1994).

B1: LTR: recombinant full-length C-terminal long tandem repeat of TS clone 7F (protein)
chain: NRRQLNTEEIRTLFLSQDLIGTEAHMDSSSDSSAHSTPSTPADSSAHSTPSTPVDSSAHSTPSTPADSSAHGTPSTPVDSSAHGTPSTPADSSAHGTPSTPVDSSAHSTPSTPVDSSAHSTPSTPVDSSAHGAPSTPADSSAHGTPSTPVDSSAHGTPSTPADSSAHSTPSTPADSSAHSTPSTPADSSAHSTPSTPVDSSAHGTPSTPADSSAHSTPSTPADSSAHGTPSTPVDSSAHSTPSTPVDSSAHGTPSTPVDSSAHSTPSTPVDSSAHGTPSTPVDSSAHSTPSTPADSSAHSTPSTPADSSAHGTPSTPVDSSAHSTPSTPADSSAHSTPSTPVDSSAHSTPSTPADSSAHGTPSTPVDSSAHGTPSTPADSSAHSTPSTPADSSAHSTPSTPADSSAHSTPSTPVDSSAHSTPSTPADSSAHSTPSTPADSSAHSTPSTPADSSAHSTPSTPVDSSAHSTPSTPADSSAHGTPSTPADSSAHSTPSTPVDSSAHSTPSTPADSSAHGTPSTPADSSAHSTPSTPADSSAHGTPSTPADSSAHSTPSTPAGSSANGTVLILPDGAALSTFSGGGLLLCACALLLHVFFMAVF
For the molecule B1, the “neurite outgrowth in N18 cells” value in experiment [1] is listed as “did not induce neurite outgrowth”. Besides, the “inhibition of serum withdrawal-induced apoptosis of Schwann cells” value in experiment [2] is given as “did not promote Schwann cell survival”. Besides, the “phosphorylation (activation) of Akt kinase in Schwann cells” value in experiment [3] was “nor activate PI3K/Akt signaling”. Besides, the “IL-6 secretion by PBMC” value in experiment [4] is reported as “upregulated IL-6 release”. In addition, the “neurite outgrowth in PC12 cells” value in experiment [5] is given as “did not induce neurite outgrowth”. Moreover, the “IL-6 secretion by T-24 cells” value in experiment [6] is reported as “effectively induced release of IL-6 in a dose-dependent manner; also recorded: dose dependent secretion of IL-6”.

B2: TS-F-47: recombinant fragment, amino acid residues 79-666 of SEQ ID NO:34 (protein, listed as Trypanosoma cruzi)
chain: GDARDWDILLAVGEVTKSTAGGKITASIKWGSPVSLKKFFPAEMEGMHTNQFLGGAGVAIVASNGNLVYPVQVTNKRKQVFSKIFYSEDDGKTWKFGKGRSDFGCSEPVALEWEGKLIINTRVDWKRRLVYESSDMEKPWVEAVGTVSRVWGPSPKSNQPGSQTSFTAVTIEGMRVMLFTHPLNFKGRCVRDRLNLWLTDNQRIYNVGQVSIGDENSAYSSVLYKDDKLYCLHEINTDEVYSLVFARLVGELRIIKSVLRSWKNWTATCPAFAPLLIQPLRRQRVVVVPLSPRLVLLAFCRQRLPKRMGGSYRCVNASTANAERVRNGLKFAGVGGGALWPVSQQGQNQRYRFANHAFTLVASVTIHEAPRAASPLLGASLDSSGGKKLLGLSYDEKHQWQPIYGSTPVTPTGSWETGKRYHLVLTMANKIGSVYIDGELLEGSGQTVVPDGRTPDISHFYVGGYKRSDMPTISHVTVNNVLLYNRRQLNTEEIRTLFLSQDLIGTEAHMDSSSDSSAHSTPSTPADSSAHSTPSTPVDSSAHSTPSTPADSSAHGTPSTPVDSSAHGTPSTPADSSAHGTPSTPVDS
As for B2, the “neurite outgrowth in N18 cells” value in experiment [1] is given as “as effective as the native enzyme in stimulating neurite outgrowth; also recorded: active both in stimulating neurite outgrowth”. In experiment [7], the “protection of PC12 cells from apoptosis induced by trophic factor withdrawal” value is recorded as “active”. Also, in experiment [8], the “trans-sialidase (enzymatic) activity” value was “enzymatically inactive”.

B3: TS-H32 (protein, listed as Trypanosoma cruzi)
chain: KKKQVFSKIFYSEDDGKTWKFGEGRSAFGCSEAVALEWEGKLIINTRVDYRRRLVYESSDMGNTWLEAVGTLSRVWGPSPKSNQPGSQSSFTAVTIEGMRVMLFTHPLNFKGRWLRDRLNLWLTDNQRIYNVGQVSIGDENSAHSSVLYKDDKLYCLHEINSNEVYSLVFARLVGELRIIKSVLQSWKNWDSHLSSICTP
For B3, in experiment [4], the “IL-6 secretion by PBMC” value is on record as “stimulating IL-6 secretion”. Also, the “trans-sialidase (enzymatic) activity” value in experiment [8] is “enzymatically-inactive”. In addition, the “IL-6 secretion by T-24 cells” value in experiment [6] is given as “stimulating IL-6 secretion”.

B4: TS-154: recombinant catalytically active trans-sialidase construct with 5 tandem repeat units (protein, listed as Trypanosoma cruzi)
chain: B3 chain with D15E, A27D, A33P, T64S, L66V, H144Y
On to B4, for which the “IL-6 secretion by PBMC” value in experiment [4] was “as powerful as enzymatically-inactive TS-H32 in stimulating IL-6 secretion”. Besides, the “trans-sialidase (enzymatic) activity” value in experiment [8] was “enzymatically-active”. Besides, the “IL-6 secretion by T-24 cells” value in experiment [6] was “as powerful as enzymatically-inactive TS-H32 in stimulating IL-6 secretion”.
